Measurements from US10391180B2, “Self-assembling complex for targeting chemical agents to cells” (CEDARS-SINAI MEDICAL CENTER, priority 2007, dated 2019).

Tests used:
MDA-MB-435 (HER2+) cells = test: Targeted toxicity, MTT assay, separate dishes; type: cell-based; conditions: 0.5 uM Dox conc, 4 h exposure, by three days
Description: (§1) FIG. 7 illustrates targeted toxicity. Each cell line was exposed to HerDox (0.5 uM Dox cone), Dox alone (0.5 uM), or HerPBK10 alone for 4 h at 37° C. in complete (i.e. serum-containing) media, followed by aspiration to remove free conjugate, and addition of fresh medium while cells are grown continuously. Cell titer was determined by metabolic (i.e. MTT) assay. FIG. 7 upper panel illustrates the effect of HerDox on MDA-MB-231 (HER2−) and MDA-MB-435 (HER2+) cell survival. Relative surviving cell numbers are represented as a % of corresponding untreated cells. FIG. 7 lower panel illustrates comparison of HerDox, Dox alone, or HerPBK10 alone on HER2− and HER2+ cell survival. Relative survival (as % of untreated cells) is shown for Day 3 of treatment.
(§2) The inventors compared the effect of HerDox or Dox alone at equivalent dosages (0.5 uM with respect to Dox concentration) on HER2+ and HER2− breast cancer cells in separate dishes. By three days, HerDox reduced HER2+ cell numbers by over 75% whereas HER2− cell survival was unaffected (FIG. 7). […] These findings emphasize the importance of targeting by showing that the untargeted drug affects nontarget (i.e. HER2−) cells. Importantly, the protein carrier, HerPBK10, alone at the equivalent concentration of protein in HerDox (0.1 uM) had no effect on either cell line (FIG. 7), including a lack of proliferation induction. To test receptor targeting, the inventors used free heregulin ligand (Her or eHRG) as a competitive inhibitor. […] As a final in vitro challenge, the inventors tested whether HerDox induces toxicity specifically to HER2+ cells in a mixed culture of HER2+ and HER2− breast cancer cells. To do this, the inventors produced a HER2− cell line tagged with green fluorescent protein (GFP) for cell identification in the mixed culture (FIG. 9 (A)). […] Altogether, these findings indicate that HerDox has the capacity to preferentially target toxicity to HER2+ cells. […] Moreover, the preferential cell killing of HER2+ cells in a mixed culture of HER2+ and HER2− cells implies that after death and lysis of the target cells, the Dox released into those cells is incapable of continuing to induce toxicity to HER2− cells. To further confirm the stability of HerDox in cell culture, HerDox was recovered from culture media in separate experiments at indicated time points and electrophoresed on an agarose gel, which was then illuminated by UV to detect Dox and stained with Coomassie blue to detect HerPBK10 protein (FIG. 9 (C)). […] Co-migration of HerPBK10 bands further verified that the conjugates remained intact in the cell media.

MDA-MB-231 (HER2−) cells = test: Targeted toxicity, MTT assay, separate dishes; type: cell-based; conditions: HerDox/Dox 0.5 uM Dox; HerPBK10 0.1 uM; day 3
Description: as §1, §2

B1: HerDox: non-covalent complex of HerPBK10, a small double-stranded nucleic acid and intercalated Dox (conjugate)
chain: LPPRLKEMKSQESAAGSKLVLRCETSSEYSSLRFKWFKNGNELNRKNKPQNIKIQKKPGKSELRINKASLADSGEYMCKVISKLGNDSASANITIVESNEIITGMPASTEGAYVSSESPIRISVSTEGANTSSSTSTSTTGTSHLVKCAEKEKTFCVNGGECFMVKDLSNPSRYLCKCQPGFTGARCTENVPMKVQNQEKAEELYMRRAAMYEEGPPPSYESVVSAAPVAAALGSPFDAPLDPPFVPPRYLRPTGGRNSIRYSELAPLFDTTRVYLVDNKSTDVASLNYQNDHSNFLTTVIQNNDYSPGEASTQTINLDDRSHWGGDLKTILHTNMPNVNEFMFTNKFKARVMVSRLPTKDNQVELKYEWVEFTLPEGNYSETMTIDLMNNAIVEHYLKVGRQNGVLESDIGVKFDTRNFRLGFDPVTGLVMPGVYTNEAFHPDIILLPGCGVDFTHSRLSNLLGIRKRQPFQEGFRITYDDLEGGNIPALLDVDAYQASLKDDTEQGGGGAGGSNSSGSGAEENSNAAAAAMQPVEDMNDHAIRGDTFATRAEEKRAEAEAAAEAAAPAAQPEVEKPQKKPVIKPLTEDSKKRSYNLISNDSTFTQYRSWYLAYNYGDPQTGIRSWTLLCTPDVTCGSEQVYWSLPDMMQDPVTFRSTRQISNFPVVGAELLPVHSKSFYNDQAVYSQLIRQFTSLTHVFNRFPENQILARPPAPTITTVSENVPALTDHGTLPLRNSIGGVQRVTITDARRRTCPYVYKALGIVSPRVLSSRTFKKKKKKKKKK
modifications: left off: small tags and cut ends
notes: non-covalent complex of HerPBK10, a small double-stranded nucleic acid and intercalated Dox
reduction of HER2+ cell numbers (MDA-MB-435 (HER2+) cells): over 75%
effect on HER2− cell survival (MDA-MB-231 (HER2−) cells): unaffected
